According to PMC4457826 (PLoS Pathogens, 2015):

Experiments:
[1] = tested on: USP7-CTD mutant D762R/D764R; test: GST pull-down, USP7-CTD D762R/D764R; assay type: binding, human
Description: (§1) Fragments representing USP7-CTD Ubl domains were prepared using ligation independent cloning with In-Fusion (Clontech) in p15TV-L. The boundaries of the Ubl domain constructs are Ubl12 (535–776), Ubl123 (535–889), Ubl345 (776–1102), Ubl45 (886–1102) and USP7-CTD (535–1102). Plasmids expressing USP7-NTD, USP7, and myc-USP7 WT (pCANmycUSP7) were described previously. USP7 mutants E759A, D762A, D764A and D762A/D764A in Ubl123 were synthesized (Genscript) and inserted into the pET15b plasmid. USP7 mutants E759A, D762A, D764A, D762A/D764A and D762R/D764R in USP7-CTD were prepared by ACGT Corporation. The D762R/D764R mutant was then sub-cloned into wild-type pCANmycUSP7 for co-IP assays. The mammalian ICP0 expression construct pCI-110 ICP0 was obtained from Roger Everett.
(§2) The ICP0, GMPS and UHRF1 WT and mutant peptides were cloned into pGEX-2TK and expressed in E. coli BL21(DE3). GST-ICP0 594–775 was obtained from Roger Everett. The GST-ICP0 or GST-GMPS or GST-UHRF1 or GST-ICP0 594–775 cell pellets from 500 ml of LB broth were re-suspended with PBS and lysed using sonication. The cleared lysates were applied to 500 μl of equilibrated glutathione-sepharose beads and incubated with rocking for 60 min at 4°C. Unbound proteins were removed by washing with PBS. Bound proteins were eluted with 50 mM Tris pH 8.0 and 100 mM NaCL containing 30 mM reduced glutathione. […]

USP7-CTD = target: T1, USP7-CTD (Homo sapiens, UniProt Q93009); test: GST pull-down, USP7-CTD; assay type: binding; conditions: GST pull-down; GST-ICP0 594–775, GST-GMPS and GST-UHRF1 peptides and mutants; Fig 3H, 4C-F
T1 construct: USP7-CTD (535–1102); His tag (inferred from nickel-NTA purification; vector p15TV-L); made in house; host or cells: E. coli BL21(DE3)mgk
T1 sequence (Q93009 535-1102): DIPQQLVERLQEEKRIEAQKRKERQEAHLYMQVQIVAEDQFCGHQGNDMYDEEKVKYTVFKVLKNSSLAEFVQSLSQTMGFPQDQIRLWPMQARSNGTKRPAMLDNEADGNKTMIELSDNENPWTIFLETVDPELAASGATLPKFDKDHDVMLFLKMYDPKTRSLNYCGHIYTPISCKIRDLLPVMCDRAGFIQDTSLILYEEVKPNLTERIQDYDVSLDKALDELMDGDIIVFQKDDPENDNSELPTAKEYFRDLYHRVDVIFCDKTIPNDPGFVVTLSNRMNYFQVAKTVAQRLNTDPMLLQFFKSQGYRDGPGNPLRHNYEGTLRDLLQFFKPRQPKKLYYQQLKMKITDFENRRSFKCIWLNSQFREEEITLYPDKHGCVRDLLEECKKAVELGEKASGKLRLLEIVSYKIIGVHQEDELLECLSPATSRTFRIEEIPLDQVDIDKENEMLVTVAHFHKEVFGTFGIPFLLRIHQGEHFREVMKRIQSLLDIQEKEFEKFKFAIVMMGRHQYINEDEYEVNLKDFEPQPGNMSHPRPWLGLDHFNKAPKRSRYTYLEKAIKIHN
Description: as §1, §2

B1: GST-ICP0 594–775: longer ICP0 peptide corresponding to residues 594–775 (protein)
chain: AVGALGGRQEETSLGPRAASGPRGPRKCARKTRHAETSGAVPAGGLTRYLPISGVSSVVALSPYVNKTITGDCLPILDMETGNIGAYVVLVDQTGNMATRLRAAVPGWSRRTLLPETAGNHVMPPEYPTAPASEWNSLWMTPVGNMLFDQGTLVGALDFRSLRSRHPWSGEQGASTRDEGKQ
modifications: left off: GST, end not stated, kept
**Q.** How did the “Binding to USP7-CTD mutant D762R/D764R” value [1] turn out when B1 was run?
**A.** not D762R/D764R USP7-CTD

**Q.** What about the “Binding to WT USP7-CTD” value (USP7-CTD) of the same molecule?
**A.** interaction was observed
